Source: IntAct's records for PubMed 19617557

B1: Gamma-aminobutyric acid receptor subunit beta-3 (Rattus norvegicus (Rat)), P63079 (parent)
chain: MWGFAGGRLFGIFSAPVLVAVVCCAQSVNDPGNMSFVKETVDKLLKGYDIRLRPDFGGPPVCVGMNIDIASIDMVSEVNMDYTLTMYFQQYWRDKRLAYSGIPLNLTLDNRVADQLWVPDTYFLNDKKSFVHGVTVKNRMIRLHPDGTVLYGLRITTTAACMMDLRRYPLDEQNCTLEIESYGYTTDDIEFYWRGGDKAVTGVERIELPQFSIVEHRLVSRNVVFATGAYPRLSLSFRLKRNIGYFILQTYMPSILITILSWVSFWINYDASAARVALGITTVLTMTTINTHLRETLPKIPYVKAIDMYLMGCFVFVFLALLEYAFVNYIFFGRGPQRQKKLAEKTAKAKNDRSKSEINRVDAHGNILLAPMDVHNEMNEVAGSVGDTRNSAISFDNSGIQYRKQSMPKEGHGRYMGDRSIPHKKTHLRRRSSQLKIKIPDLTDVNAIDRWSRIVFPFTFSLFNLVYWLYYVN

Variants of: B1
Conditions: with ap2m1_rat Ap2m1, P84092
Sequence of ap2m1_rat Ap2m1, P84092 (P84092 whole entry): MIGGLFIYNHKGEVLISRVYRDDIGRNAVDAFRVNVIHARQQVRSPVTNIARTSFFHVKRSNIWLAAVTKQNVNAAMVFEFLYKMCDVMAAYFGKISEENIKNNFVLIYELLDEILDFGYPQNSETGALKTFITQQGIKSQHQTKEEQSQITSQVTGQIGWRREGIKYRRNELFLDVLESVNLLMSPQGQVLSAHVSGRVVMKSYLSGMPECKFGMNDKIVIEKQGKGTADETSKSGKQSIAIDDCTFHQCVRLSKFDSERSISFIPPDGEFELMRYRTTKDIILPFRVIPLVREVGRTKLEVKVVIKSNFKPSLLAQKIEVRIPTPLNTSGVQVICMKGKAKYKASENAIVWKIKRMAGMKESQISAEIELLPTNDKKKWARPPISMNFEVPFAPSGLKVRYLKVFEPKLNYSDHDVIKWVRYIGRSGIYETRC

Row | Variant | effect of a mutation on the interaction
1 | S432A;S433A | decreasing interaction strength
